In data set [1] the test system is PC3/PRLR tumors. Kind of data set: Tumor growth inhibition in xenograft-bearing mice. It is filed as in vivo, SCID mice. The note with it: for Average Tumor Growth Inhibition (%): SCID mice; for effect on PC3/PRLR tumor growth: multi-dose, especially at 15 mg/kg. The source says:
(§1) Briefly, 20×10^6 MCF7/PRLR cells (ATCC HTB-22 transfected with full length hPRLR as previously described) were implanted subcutaneously into the left mammary fat pad of female NCr nude mice. In other studies, 10×10^6 PC3/PRLR (ATCC CRL-1435 transfected with full length hPRLR as previously described) were implanted subcutaneously into the left flank of male SCID mice. Additionally, 10×10^6 parental T47D (ATCC HTB-133) or […] T47D#11 cells (ATCC HTB-133 serially passaged in vivo as described below) were subcutaneously implanted into the left flank of female CB17 SCID mice. All mice were obtained from Taconic (Hudson, N.Y.). Each bolus of cells was supplemented with a 90-day estrogen release pellet (1.7 mg/pellet; Innovative Research America, Sarasota Fla.). Once tumors had reached an average volume of 250 mm^3, mice were randomized into groups of seven and dosed with anti-PRLR antibody-drug conjugates of the invention or control reagents. Control reagents included PBS vehicle, free methyl-disulfide DM1 (DM1-SMe) and isotype Control 1-DM1.
(§2) In multi-dose studies, mice were dosed once a week for a total of three weeks with tumor volumes and body weights being monitored twice weekly throughout the study. Test ADCs were dosed at 5 and/or 15 mg/kg in the multi-dose studies. In single-dose studies, mice received a single dose of test ADC, and tumor volumes and body weights were monitored twice weekly throughout the study. Test ADCs were dosed at 1, 2.5, 5, and 15 mg/kg in the single-dose studies. Average tumor size as well as tumor growth inhibition relative to the vehicle treated group were calculated for each group. Tumors were measured with calipers twice a week until the average size of the vehicle group reached 1000 mm^3. Tumor size was calculated using the formula (length×width^2)/2. Tumor growth inhibition was calculated according to the following formula: (1−((Tfinal−Tinitial)/(Cfinal−Cinitial)))*100, where T (treated group) and C (control group) represent the mean tumor mass on the day the vehicle group reached 1000 mm^3. […] Results are summarized in Tables 21-25 (multi-dose) and Table 26 (single dose). (NT=not tested in the particular experiment shown).

The subject of data set [2] is HEK293 (293) cells. Kind of data set: Cell viability (cell kill) assay. It is filed as cell-based. A digest of the protocol:
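Anti-PRLR–DM1 ADCs (non-cleavable SMCC linker) or free DM1-SMe, 500 nM to 5 pM for 3 days on parental or hPRLR-overexpressing lines. HEK293: CCK8 OD450; MCF7: Hoechst nuclear counts by imaging.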

A short description of data set [3]: Conjugate characterization: protein and linker/payload concentrations, payload loading (UV, MALDI-TOF, SEC-HPLC, RP-HPLC). The conditions noted are these: Anti-PRLR-SMCC-DM1 conjugates; Table 9. Type of data set: physicochemical. A digest of the protocol:
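Anti-PRLR antibodies were conjugated to DM1 via an SMCC linker, then purified by size exclusion and sterile filtered. Protein and linker/payload concentrations came from UV and MALDI-TOF, and monomer content and free linker-payload from SEC-HPLC and RP-HPLC. Payload loading was determined by UV and by native-versus-conjugated mass difference, with yields based on protein.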
(In general: Size exclusion chromatography separates by hydrodynamic size, large species first.)

Data set [4] concerns PC3/hPRLR cells. Kind of data set: Cell viability (cell kill) assay. Type of data set: cell-based, human. In outline:
(§3)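 PC3 and PC3/hPRLR (lipofection-generated, FACS-enriched for PRLR) cells exposed 3 days to anti-PRLR ADCs or free DM1-SMe, 500 nM to 5 pM. Viability by CCK8 OD450, digitonin background subtracted, as % of untreated; IC50 from four-parameter fit of 10-point curves.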

The subject of data set [5] is PC3 cells. Kind of data set: Cell viability (cell kill) assay. It is filed as cell-based. In outline:
as §3

Data set [6] has as its system MCF7/PRLR tumors. Kind of data set: Tumor growth inhibition in xenograft-bearing mice. Type of data set: in vivo, NCr nude mice. The note with it: for effect on MCF7/PRLR tumor growth: multi-dose trial 1, 5 and 15 mg/kg.
Text: as §1, §2

This is an account of results in US9688764B2, “Methods of treating breast cancer by administering anti-human prolactin receptor (PRLR) antibodies” (REGENERON PHARMACEUTICALS, INC., priority 2013, dated 2017).

Bounds are passed on as bounds.

As usually defined, the IC50 is the midpoint of a concentration-inhibition curve. The low end stands for greater potency, the high end for weaker potency.

B1: H1H6765P: anti-PRLR antibody, human IgG1 Fc; HCVR/LCVR SEQ ID NOs 18/26 (antibody, V domains shown)
VH: EVQLVESGGGVVRPGGSLRLSCVGSGFSFDDHGMNWVRQGPGKGLEWVSGFNWNGGSTNYAESVKGRFTISRDNARNSLFLQMNSLRAEDTALYYCVRGRSGWFNDAFDVWGPGTMVTVSS
VL: EIVLTQSPGTLSLSPGERATLSCRASQTINSNYLAWYRQKPGQTPRLLIYGTSSRATGIPDRFSGSGSGTDFSLTISRLEPEDFAVFYCQQYAGLPTFGPGTKVDIK
modifications: human IgG1 Fc
In the case of B1, the “Average Tumor Growth Inhibition (%)” value in data set [1] (PC3/PRLR tumors TRIAL #2, multi-dose 15 mg/kg, Day 55) came out at 1%.

B2: H1H6953N-DM1 (conjugate)
VH: EVQLLESGGGLVQPGGTLRLSCAASGFTFSAYAMSWVRQAPGKGLEWVSSINVRAGDTYYADSVKGRFTISRDNSKNTLFLLMNSLRAEDTAAYYCAKARYSSNWGFDFWGQGTLVTVSS
VL: DIVMTQSPDSLTVSLGARTTINCQSSQTILHSSNNHNYLAWYQQKPGLPPKLLIYWSSTRESGVPDRFSGSGSGTDFTLTISSLQAEDVAIYYCQQYSNTPYTFGQGTKLEIN
Turning to B2, the IC50 was 100 nM in data set [2] (293, Table 11, 3 days); 100 nM in data set [2] (293, Table 14); 0.86 nM in data set [4] (PC3/PRLR, Table 11, 3 days); 0.68 nM in data set [4] (PC3/PRLR, Table 15); 100 nM in data set [5] (Table 15). Also, the “effect on PC3/PRLR tumor growth” value in data set [1] is recorded as “demonstrated inhibition of tumor growth”. Further, the “Payload:Antibody Molar Ratio (MS)” value in data set [3] is reported as 2.7. Also, in data set [3], the “Payload:Antibody Molar Ratio (UV)” value is listed as 3.2. Moreover, the “% Kill” value in data set [4] (PC3/PRLR, Table 11, 3 days) came to 67%; in data set [4] (PC3/PRLR, Table 15), 76%; in data set [5] (Table 15), 80%. For the same molecule, in data set [6], the “effect on MCF7/PRLR tumor growth” value was “potently inhibited MCF7/PRLR tumor growth”.

B3: H1H6953N: human IgG1 Fc form of H1M6953N; anti-PRLR; HCVR/LCVR SEQ ID NOs 274/282 (antibody, V domains shown)
VH: EVQLLESGGGLVQPGGTLRLSCAASGFTFSAYAMSWVRQAPGKGLEWVSSINVRAGDTYYADSVKGRFTISRDNSKNTLFLLMNSLRAEDTAAYYCAKARYSSNWGFDFWGQGTLVTVSS
VL: DIVMTQSPDSLTVSLGARTTINCQSSQTILHSSNNHNYLAWYQQKPGLPPKLLIYWSSTRESGVPDRFSGSGSGTDFTLTISSLQAEDVAIYYCQQYSNTPYTFGQGTKLEIN
modifications: human IgG1 Fc
Regarding B3, in data set [6] (MCF7/PRLR tumors TRIAL #1, multi-dose 15 mg/kg, NCr Nude mice, Day 52), the “Average Tumor Growth Inhibition (%)” value is reported as 79%.

B4: H1H6958N2-DM1: anti-PRLR antibody H1H6958N2 conjugated to DM1 through an SMCC linker (conjugate)
VH: QVQLVESGGGVVQPGRSLRLSCGASGFTFRNYGMQWVRQGPGKGLEWVTLISFDGNDKYYADSVKGRFTISRDNSKNTLFLQMNSLRTEDTAVYYCARGGDFDYWGQGTLVTVSS
VL: DIQMTQSPSSLSASVGDRVTITCRASQDIRKDLGWYQQKPGKAPKRLIYAASSLHSGVPSRFSGSGSGTEFTLTISSLQPEDFATYYCLQHNSYPMYTFGQGTKLEIK
For B4, the “% Kill” value in data set [2] (293, Table 19) came to 90%; in data set [2] (HEK293, Table 13, without PRL), 88%; in data set [4] (PC3/PRLR, Table 11, 3 days) it was 83%; in data set [4] (PC3/hPRLR, Table 18), 79%; in data set [5] (Table 11, 3 days) it was 83%. Besides, the concentration for half-maximal inhibition (IC50) turned out to be 100 nM in data set [2] (293, Table 19); 90 nM in data set [2] (HEK293, Table 13, without PRL); 0.43 nM in data set [4] (PC3/PRLR, Table 11, 3 days); 0.5 nM in data set [4] (PC3/hPRLR, Table 18); 150 nM in data set [5] (Table 11, 3 days). Further, the “Average Tumor Growth Inhibition (%)” value in data set [1] (PC3/PRLR tumors TRIAL #1, multi-dose 5 mg/kg, Day 63) amounted to 5%. Further, the “effect on PC3/PRLR tumor growth” value in data set [1] is “demonstrated inhibition of tumor growth”. For the same molecule, the “Payload:Antibody Molar Ratio (MS)” value in data set [3] was found to be 3.4. Besides, the “Payload:Antibody Molar Ratio (UV)” value in data set [3] came to 4.0. Moreover, the “effect on MCF7/PRLR tumor growth” value in data set [6] is given as “potently inhibited MCF7/PRLR tumor growth”. In addition, the “effect on tumor volume relative to vehicle control tumors” value in data set [6] (single dose, 1 mg/kg) is reported as “significant decrease in tumor volume”. Also, the tumor growth inhibition in data set [6] (single dose, all doses above 1 mg/kg tested (2.5, 5, 15 mg/kg)) is more than 100%.

B5: H1H6958N2: human IgG1 Fc form of H2M6958N2; anti-PRLR, receptor blocking; HCVR/LCVR SEQ ID NOs 290/298 (antibody, V domains shown)
VH: QVQLVESGGGVVQPGRSLRLSCGASGFTFRNYGMQWVRQGPGKGLEWVTLISFDGNDKYYADSVKGRFTISRDNSKNTLFLQMNSLRTEDTAVYYCARGGDFDYWGQGTLVTVSS
VL: DIQMTQSPSSLSASVGDRVTITCRASQDIRKDLGWYQQKPGKAPKRLIYAASSLHSGVPSRFSGSGSGTEFTLTISSLQPEDFATYYCLQHNSYPMYTFGQGTKLEIK
modifications: human IgG1 Fc
As for B5, in data set [6] (MCF7/PRLR tumors, single dose 15 mg/kg, Day 55), the “Average Tumor Growth Inhibition (%)” value stood at 1%.
